According to patent US20120045393A1 (priority 2009, published 2012):
Non-standard residues stand in square brackets, D forms with d. *: point of attachment. d1Nal = N[C@H](Cc1cccc2ccccc12)C(=O)O; DO3A10CM = not defined here; Nicotinoyl = O=C(c1cccnc1)*; dCfe4 = not defined here; Sar = CNCC(=O)O; iPr = CC(C)*

B1: BRU-3100 (peptide)
peptide: XRWSHXWXP
modifications: N-terminal DO3A10CM; Da48oa linker before 1; Dnal2 at 1; Darg at 6; Bpa4 at 8; C-terminal Da15o3pt at 10
B2: BRU-2968 (peptide)
peptide: XRWSHXWXP
modifications: N-terminal DO3A10CM; Dnal2 at 1; Darg at 6; Bpa4 at 8; C-terminal Da15o3pt at 10
B3: BRU-3099 (peptide)
peptide: XXRWSHXWXPX
modifications: N-terminal DO3A10CM; Dlys linker before 1; Dnal2 at 1; Darg at 6; Bpa4 at 8; azaGly-NH2 at 10
B4: BRU-2992 (peptide)
peptide: XRWSHXWXP
modifications: Ac-Dnal2 at 1; Darg at 6; Bpa4 at 8; C-terminal Da15o3pt linker carrying DO3A10CM
B5: BRU-3097 (peptide)
peptide: KXRWSHXWXPX
modifications: N-terminal DO3A10CM; Lys linker before 1; Dnal2 at 1; Darg at 6; Bpa4 at 8; azaGly-NH2 at 10
B6: ^177Lu-BRU-2613 (peptide)
peptide: DO3A10CM-G[Sar][dCfe4][d1Nal]S[Metyr][dK](Nicotinoyl)LK(iPr)P[dA]-NH2
modifications: reading uncertain; also: 177Lu complexed by DO3A10CM, printed as 177Lu-DO3A10CM-Gly-Sar-Dcfe4-Dnal1-Ser-Metyr-Dlys(Nic)-Leu-Lys(isp)-Pro-Dala-NH2

Biological target: LHRH receptor (LHRH binding sites) on EFO-27 human ovarian cancer cells (human)
Assay: competition with [125I-Tyr8]BRU-2477, EFO-27 cells
Details: not given

Row | EC50 | Molecule
1 | 200 nM | XRWSHXWXP (as printed: Sar-R-W-S-H-Darg-W-Bpa4-P-Ampip2-DO3A10CM (C-terminal chelator)) [BRU-3102]
2 | 400 nM | XRWSHXWXP (as printed: Sar-R-W-S-H-Darg-W-Bpa4-P-Dapt15-DO3A10CM (C-terminal chelator)) [BRU-3085]
3 | 140 nM | B1
4 | 360 nM | XHWSHXWXPX (DO3A10CM on N-terminus; AA1 Dnal1; AA6 Darg; AA8 Bpa4; AA10 azaGly-NH2) [BRU-2869]
5 | 230 nM | XRWSHXWXP (as printed: Sar-R-W-S-H-Darg-W-Bpa4-P-Bampy26-DO3A10CM (C-terminal chelator)) [BRU-3080]
6 | 240 nM | B2
7 | 440 nM | B3
8 | 330 nM | XRWSHXWXP (as printed: Sar-R-W-S-H-Darg-W-Bpa4-P-Da18o36oc-DO3A10CM (C-terminal chelator)) [BRU-3043]
9 | 470 nM | B4
10 | 340 nM | XRWSHXWX (as printed: Sar-R-W-S-H-Darg-W-Bpa4-Am2prd-DO3A10CM (C-terminal chelator)) [BRU-3117]
11 | 210 nM | XRWSHXWXP (as printed: Sar-R-W-S-H-Darg-W-Bpa4-P-Maz4dahp17-DO3A10CM (C-terminal chelator)) [BRU-3045]
12 | 170 nM | XRWSHXWXP (as printed: Sar-R-W-S-H-Darg-W-Bpa4-P-Dae-DO3A10CM (C-terminal chelator)) [BRU-3103]
13 | 200 nM | XRWSHXWXP (as printed: Dnal2-R-W-S-H-Darg-W-Bpa4-P-Dabt14-DO3A10CM (C-terminal chelator)) [BRU-3042]
14 | 210 nM | XRWSHXWXP (as printed: Dnal2-R-W-S-H-Darg-W-Bpa4-P-Da15o3pt-DO3A10CM (C-terminal chelator)) [BRU-2991]
15 | 240 nM | XRWSHXWXP (as printed: Sar-R-W-S-H-Darg-W-Bpa4-P-bap14p-DO3A10CM (C-terminal chelator)) [BRU-3044]
16 | 450 nM | B5
17 | 280 nM | XRWSHXWXP (as printed: Sar-R-W-S-H-Darg-W-Bpa4-P-Da15o3pt-DO3A10CM (C-terminal chelator)) [BRU-3039]
18 | 360 nM | XRWSHXWXP (as printed: Sar-R-W-S-H-Darg-W-Bpa4-P-Dabt14-DO3A10CM (C-terminal chelator)) [BRU-3041]

Biological target: LHRH receptor (LHRH binding sites) on EFO-27 human ovarian cancer cells (human)
Assay: competition with [125I-Tyr8]BRU-2477 for binding to EFO-27 cells
Details: not given

Row | EC50 | Molecule
19 | 200 nM | XRWSHXWXP (as printed: Sar-R-W-S-H-Darg-W-Bpa4-P-Ampip2-DO3A10CM (C-terminal chelator)) [BRU-3102]
20 | 400 nM | XRWSHXWXP (as printed: Sar-R-W-S-H-Darg-W-Bpa4-P-Dapt15-DO3A10CM (C-terminal chelator)) [BRU-3085]
21 | 140 nM | B1
22 | 360 nM | XHWSHXWXPX (DO3A10CM on N-terminus; AA1 Dnal1; AA6 Darg; AA8 Bpa4; AA10 azaGly-NH2) [BRU-2869]
23 | 230 nM | XRWSHXWXP (as printed: Sar-R-W-S-H-Darg-W-Bpa4-P-Bampy26-DO3A10CM (C-terminal chelator)) [BRU-3080]
24 | 240 nM | B2
25 | 440 nM | B3
26 | 330 nM | XRWSHXWXP (as printed: Sar-R-W-S-H-Darg-W-Bpa4-P-Da18o36oc-DO3A10CM (C-terminal chelator)) [BRU-3043]
27 | 470 nM | B4
28 | 340 nM | XRWSHXWX (as printed: Sar-R-W-S-H-Darg-W-Bpa4-Am2prd-DO3A10CM (C-terminal chelator)) [BRU-3117]
29 | 210 nM | XRWSHXWXP (as printed: Sar-R-W-S-H-Darg-W-Bpa4-P-Maz4dahp17-DO3A10CM (C-terminal chelator)) [BRU-3045]
30 | 170 nM | XRWSHXWXP (as printed: Sar-R-W-S-H-Darg-W-Bpa4-P-Dae-DO3A10CM (C-terminal chelator)) [BRU-3103]
31 | 200 nM | XRWSHXWXP (as printed: Dnal2-R-W-S-H-Darg-W-Bpa4-P-Dabt14-DO3A10CM (C-terminal chelator)) [BRU-3042]
32 | 210 nM | XRWSHXWXP (as printed: Dnal2-R-W-S-H-Darg-W-Bpa4-P-Da15o3pt-DO3A10CM (C-terminal chelator)) [BRU-2991]
33 | 240 nM | XRWSHXWXP (as printed: Sar-R-W-S-H-Darg-W-Bpa4-P-bap14p-DO3A10CM (C-terminal chelator)) [BRU-3044]
34 | 450 nM | B5
35 | 280 nM | XRWSHXWXP (as printed: Sar-R-W-S-H-Darg-W-Bpa4-P-Da15o3pt-DO3A10CM (C-terminal chelator)) [BRU-3039]
36 | 360 nM | XRWSHXWXP (as printed: Sar-R-W-S-H-Darg-W-Bpa4-P-Dabt14-DO3A10CM (C-terminal chelator)) [BRU-3041]

System: EFO-27 human ovarian cancer cells (LHRH binding sites)
Assay: Direct binding/uptake of 177Lu-labeled LHRH-II analogs to EFO-27 cells
Details: 177Lu-labeled analog, single concentration
Procedure: All reagents and chemicals were obtained from Sigma unless otherwise specified. LHRH analogs and ^177Lu-LHRH-II analogs were prepared by in-house chemists, as described elsewhere in the application. ^177Lu-LHRH-II analogs were not HPLC purified, as they had been prepared using formulation conditions that yielded high RCP without the need for purification. […] The HPLC-purified material was taken in a stabilizing buffer containing 5% lactose, 0.1% L-cysteine hydrochloride and 800 KIU/mL aprotinin and received as a lyophilized product and stored at −70° C. This was reconstituted in distilled water, aliquoted and stored at −70° C. The radioactivity was determined using Microplate Scintillation counter (Wallac Microbeta Trilux).
For the binding assay, EFO-27 cells were seeded onto 96-well clear flat-bottom tissue-culture-treated plates at 15,000/well density in the growth medium and used for assay on day 2 post-seeding. Cells were routinely checked for confluence and contamination and cell count was done occasionally to ensure consistency in cell numbers.
Direct Binding: Direct binding studies were carried out by incubating appropriate ^177Lu-labeled compounds with EFO-27 cells at 4° C. for 1 h followed by washing off the unbound radioactivity. Non-specific binding was determined by incubating the ^177Lu-LHRH-II analogs in the presence of a large excess (30 uM) of cold (unlabeled) LHRH-II analogs. A 96-well plate format was used.

Row | Molecule | 177Lu-LHRH II Direct binding % Bound
37 | 2738 (XFWSHXWXPX; N-methyl) [compound 2738] | 1.41%
38 | N=C(N)NCCC[C@@H](NC(=O)[C@H](Cc1c[nH]cn1)NC(=O)[C@H](CO)NC(=O)[C@H](Cc1c[nH]c2ccccc12)NC(=O)[C@H](Cc1c[nH]cn1)NC(=O)[C@@H](Cc1ccc2ccccc2c1)NC(=O)CN1CCN(CC(=O)O)CCN(CC(=O)O)CCN(CC(=O)O)CC1)C(=O)N[C@@H](Cc1c[nH]c2ccccc12)C(=O)N[C@@H](Cc1ccc(C(=O)c2ccccc2)cc1)C(=O)N1CCC[C@H]1C(=O)NNC(N)=O [compound 2666] | 13.25%

Biological target: LHRH receptor (LHRH binding sites) on EFO-27 human ovarian cancer cells (human)
Assay: direct binding of 177Lu-labeled peptide to EFO-27 cells, single concentration
Details: not given

Row | % Bound | Molecule
39 | 0.17% | B6

Biological target: LHRH binding sites on EFO-27 human ovarian cancer cells (human)
Assay: competition with [125I-Tyr8]BRU-2477 on EFO-27 cells
Details: not given

Row | EC50 | Molecule
40 | 360 nM | XHWSHXWXPX (DO3A10CM on N-terminus; AA1 Dnal1; AA6 Darg; AA8 Bpa4; AA10 azaGly-NH2) [BRU-2869]
41 | 240 nM | B2
